The series concerns the target nucleolin (on the surface of live Huh7 cells) (UniProt P19338). Put plainly: flow cytometry on live Huh7 cells. Particulars: 5 mM MgCl2, whole-cell apparent Kd, Dulbecco's PBS, 4.5 g/L glucose, 5 mM MgCl2, 0.1 mg/mL yeast tRNA, 1 mg/mL BSA, on ice 30 min, 2x10^5 cells in 200 uL, pH not stated.
Chain of UniProt P19338 (P19338 whole entry): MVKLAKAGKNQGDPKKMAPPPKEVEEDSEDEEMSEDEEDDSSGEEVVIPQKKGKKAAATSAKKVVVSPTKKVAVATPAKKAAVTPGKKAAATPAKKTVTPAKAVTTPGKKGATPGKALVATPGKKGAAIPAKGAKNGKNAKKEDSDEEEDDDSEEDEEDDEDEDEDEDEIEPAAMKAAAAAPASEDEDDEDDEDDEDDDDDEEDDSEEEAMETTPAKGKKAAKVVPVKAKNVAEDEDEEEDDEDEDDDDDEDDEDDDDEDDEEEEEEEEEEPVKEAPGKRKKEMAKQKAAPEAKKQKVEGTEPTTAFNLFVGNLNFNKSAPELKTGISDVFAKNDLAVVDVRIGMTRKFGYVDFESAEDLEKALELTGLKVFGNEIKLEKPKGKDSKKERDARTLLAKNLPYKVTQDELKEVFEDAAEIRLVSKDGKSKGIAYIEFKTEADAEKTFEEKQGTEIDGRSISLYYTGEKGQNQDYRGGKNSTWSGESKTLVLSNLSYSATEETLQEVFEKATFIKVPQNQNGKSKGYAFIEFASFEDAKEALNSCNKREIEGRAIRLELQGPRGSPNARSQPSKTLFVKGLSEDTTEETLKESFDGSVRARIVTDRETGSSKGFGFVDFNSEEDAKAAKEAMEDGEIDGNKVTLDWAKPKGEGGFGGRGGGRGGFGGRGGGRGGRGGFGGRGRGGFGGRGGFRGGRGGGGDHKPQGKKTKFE

Consider “GGTGGTGGTGGTTGTGGTGGTGGTGG [AS1411-Dox adduct]”, for which, where the note is “doxorubicin adducts via formaldehyde methylene links to guanine N2, 5.4 +/- 0.1 Dox per strand”, the Kd is 57.3 nM.
Turning to “GGTGGTGGTGGTTGTGGTGGTGGTGG [AS1411 (AGRO100)]”, the Kd stood at 54.8 nM.

The record behind these values is publication PMC4629891.
